Results: publication PMC5871715 (2018)

B1: full-length human Draxin AVEXIS prey, wild type [human] / human Netrin-1 WT bait protein (VI+V), AVEXIS [human] (parent complex)
chain 1: GALAPGTPARNLPENHIDLPGPALWTPQASHHRRRGPGKKEWGPGLPSQAQDGAVVTATRQASRLPEAEGLLPEQSPAGLLQDKDLLLGLALPYPEKENRPPGWERTRKRSREHKRRRDRLRLHQGRALVRGPSSLMKKAELSEAQVLDAAMEESSTSLAPTMFFLTTFEAAPATEESLILPVTSLRPQQAQPRSDGEVMPTLDMALFDWTDYEDLKPDGWPSAKKKEKHRGKLSSDGNETSPAEGEPCDHHQDCLPGTCCDLREHLCTPHNRGLNNKCFDDCMCVEGLRCYAKFHRNRRVTRRKGRCVEPETANGDQGSFINV
chain 2: not shown

Variants of: B1
Test: AVEXIS; average of three repeats; read off a plot

Question: With chain 1 F208A as the variant, how does the response read?
Answer: Its response is roughly 0.055 A486 nm.

Question: With chain 1 L203R as the variant, how does the response read?
Answer: Its response is roughly 0.004 A486 nm.

Question: Which response does the source give for chain 1 L203A here?
Answer: Its response is roughly 0.004 A486 nm.

Question: For chain 1 F208R, which response is on record?
Answer: Its response is roughly 0.021 A486 nm.

Question: With chain 1 F208P as the variant, how does the response read?
Answer: The response was roughly 0.037 A486 nm.

Question: Which response does the source give for chain 1 L203P here?
Answer: Its response is roughly 0.005 A486 nm.
